These results are taken from patent publication US20090291083A1, “BARB4 TARGET, ANTIBODY DESIGNATED BARB4, BARB4 RELATED ANTIBODIES, AND METHODS OF MAKING AND USING SAME” (PATRYS LIMITED, priority 2008, published 2009).

Holding throughout (test): MTT cell proliferation assay (Table 3)
Common to all, as to format: cell-based, human
Background: Tetrazolium dyes change colour on reduction, which living cells bring about.

One assay deals with HT-29. The procedure: (§1) BARB4 was also evaluated for inhibition of proliferation of other cancer cell lines, including BxPC-3, COLO 205, H460, MDA-MB-231 and MIAPaCa-2 cells, as well as HT-29, HCT-116, BxPC-3, PANC-1, A549, PC-3 and HCT116 cells. In brief, various human cancer cell lines obtained from the American Type Culture Collection (ATCC) were established using standard in vitro culture methods and ATCC recommended media in 175 cm2 BD tissue culture treated flasks. In particular, MDAMB-231 cultures were incubated in a humidified 37° C., 100% air incubator, and BxPC-3, COLO 205, H460 and MIAPaCa-2 cultures were incubated in a humidified 37° C., 5% CO2, 95% air incubator. Cultures were sub-cultivated regularly to maintain log phase growth. All cell lines were brought up from cryopreservation using the original recommended ATCC media type and supplements. Cell line specific seeding densities were based on historical data from MIR Preclinical Services for growth over a 72 hr period.
(§2) The anti-proliferative activity of BARB4 and cisplatin was evaluated using the MTT cell proliferation assay (ATCC catalog #30-1010K). The assay is based on the reduction of yellow tetrazolium MTT (3-(4,5-dimethylthiazolyl-2)-2,5-diphenyltetrazolium bromide) by metabolically active cells forming purple formazan crystals. The purple formazan is solubilzed with detergent and quantified spectrophotometrically at 570 nm (MTT Cell Proliferation Assay, ATCC 30-1010K; Van de Loosdrecht, et al. J. Immunol. Methods 174:311 (1994): Ferrari, et al. J. Immunol. Methods 131:165 (1990); Gerlier, D., and N. Thomasset. J. Immunol. Methods 94:57 (1986); Alley, et al. Cancer Res. 48:589 (1988); and Mosmann, T. J. Immunol. Methods 65:55 (1983)). The MTT Cell Proliferation Assay Kit from ATCC contains ready to use MTT and detergent solutions.
(§3) Cells in the log phase of growth were seeded into 96-well culture plates in 0.1 mL of complete medium in all wells except column 12 which was reserved for media-only control (blank) and allowed to attach overnight at 37° C. Compounds were diluted in complete culture media and added to each well in a volume of […] for a final 1:2 dilution from the 2× dilution reservoir concentration. At 24 and 48 hr post-treatment, 100 μl of media was removed and 0.01 mL of MTT reagent was added to each well. The plates were returned to the incubator for four hours. Detergent reagent (0.1 mL) was then added and the plates incubated overnight at 37° C. in the dark to solubilize the formazan crystals. The absorbance at 570 nm was measured with a SpectraMAX® Plus plate reader (Molecular Devices Corporation) at 24 and 48 hr post-detergent addition. Absorbance values were converted to percent of control and then plotted against test agent concentrations for IC50 calculations using SoftMax® Pro v. 5.2 (Molecular Devices Corporation). Plots of percent of control vs. compound (BARB4 or cisplatin) concentration were analyzed using the 4 parameter equation to obtain IC50 values and other parameters that describe the sigmoidal curve along with an R2 value.
(§4) Using the same MTT assay as described for the BxPC-3, COLO 205, H460, MDA-MB-231 and MIAPaCa-2 cells, proliferation of HT-29, HCT-116, BxPC-3, PANC-1, A549, PC-3 and HCT116 cells was evaluated and IC50 (μg/ml) was calculated at 24, 48 and 72 hours. The cell culture protocol for passaging adherent cells used is substantially as described above for the BxPC-3, COLO 205, H460, MDA-MB-231, and MIAPaCa-2 cells. The following were the cell line propagation conditions:
(§5) Atmosphere. 5% CO2, humidified Media Supplements Used: * FBS—Fetal Bovine Serum (Gibco 10082-147; lot #1354986), * PSG—Penicillin, Streptomycin, L-Glutamine Solution (CellGro 30-009-CI), * 0.1M Na Pyruvate (CellGro 25-000-CI), * 1.0M HEPES (CellGro 25-060-CI), AND * 45% Glucose (CellGro 25-037-CI). Seeding Densities* for IC50 Assays: A549 2.5×10^3; PC-3 6.0×10^3; HT-29 12×10^3; HCT-116 8.0×10^3; BxPC-3 12×10^3; and PANC-1 6.0×10^3 cells.

The test system of another assay is PC-3. On the procedure:
as §1, §2, §3, §4, §5

The test system of the next assay is PANC-1. The procedure:
as §1, §2, §3, §4, §5

Another assay relates to HCT-116. On the procedure:
as §1, §2, §3, §4, §5

The test system of another assay is A549. The procedure:
as §1, §2, §3, §4, §5

The test system of the next assay is BxPC-3. The procedure:
as §1, §2, §3, §4, §5

B1: BARB4: human IgG antibody produced by hybridoma DSMZ Deposit No. DSM ACC2876; heavy chain SEQ ID NOs:1, 3, 5, 7, light chain SEQ ID NO:9 (antibody, V domains shown)
VH: QVQLVESGGGVVQPGRSLRLSCAASGFRFTTHGMHWVRQAPGKGLEWVAVISYNGRNKYYADYVNGRFTISRDDSRDTVFLQMNSLRPEDTAMYYCAKVRGDGYGDYGYFDYWGHGTLVSVSS
VL: QSALTQPRSVSGSPGQSVTISCTGTYNYVSWYQQHPGKAPKLMIFDVSRRSSGVPDRFSGSKSGNTASLTISGLQAEDEADYYCCSYGGTYLYVFGTGTTVTVLGQ
For the molecule B1, the “IC50 24 hours” value came to 399.5 µg/mL in the assay with HT-29 (24 hours); 57.2 µg/mL with PC-3 (24 hours); 91.4 µg/mL in the assay with PANC-1 (24 hours); 24.8 µg/mL in the assay with HCT-116 (24 hours); 98.9 µg/mL in the assay with A549 (24 hours); 88.9 µg/mL in the assay with BxPC-3 (24 hours). Further, the “IC50 48 hours” value in the assay with HT-29 (48 hours) amounted to 300.1 µg/mL; in the assay on PC-3 (48 hours), 64.2 µg/mL; with PANC-1 (48 hours) it was 337.1 µg/mL; with HCT-116 (48 hours) it was 77.3 µg/mL; with A549 (48 hours), 111.2 µg/mL; with BxPC-3 (48 hours), 362.8 µg/mL. Further, the “IC50 72 hours” value in the assay with HT-29 (72 hours) came to 228.8 µg/mL; in the assay on PC-3 (72 hours), 155.7 µg/mL; in the assay on PANC-1 (72 hours) it was 353.2 µg/mL; in the assay on HCT-116 (72 hours), 95.2 µg/mL; in the assay on A549 (72 hours), 122.2 µg/mL; in the assay on BxPC-3 (72 hours), 511.4 µg/mL.
